Residue numbers refer to the chain shown, from its start. Blank lines part the entries; values can stand above or below the binder they belong to.
Biological target: T1, Hmm-hTFRC (REGN2431), monomeric human transferrin receptor ectodomain with N-terminal hexahistidine-myc-myc … (human, UniProt P02786 89-760)
T1 construct: also called hmm.hTfR(C89-F763); His-myc-myc-hTFRC ecto
Experiment: blocking ELISA, supernatant; Hmm-hTFRC binding to immobilized human holo-Tf
Procedure: In the blocking assay, the anti-human Transferrin goat IgG polyclonal antibody (anti-hTf pAb) was passively absorbed at a concentration of 2 micrograms/mL in PBS on a 96-well microtiter plate overnight at 4° C. […] To the same plate, human holo-Tf was then added at a concentration of 1 micrograms/mL in PBS+0.5% BSA for 2 hours at room temperature. […] After a 1-hour incubation, the mixtures were transferred to the human holo-Tf microtiter plates. […] The plates were developed using TMB substrate solution according to the manufacturer's recommended procedure and absorbance at 450 nm was measured on a Victor™ Multilabel Plate Reader.
The ability of the anti-TfR antibody to block human TFRC binding to human holo-Tf was evaluated using an ELISA-based blocking assay.

T1 sequence (P02786 other isoform, or with tags, fused parts or gaps): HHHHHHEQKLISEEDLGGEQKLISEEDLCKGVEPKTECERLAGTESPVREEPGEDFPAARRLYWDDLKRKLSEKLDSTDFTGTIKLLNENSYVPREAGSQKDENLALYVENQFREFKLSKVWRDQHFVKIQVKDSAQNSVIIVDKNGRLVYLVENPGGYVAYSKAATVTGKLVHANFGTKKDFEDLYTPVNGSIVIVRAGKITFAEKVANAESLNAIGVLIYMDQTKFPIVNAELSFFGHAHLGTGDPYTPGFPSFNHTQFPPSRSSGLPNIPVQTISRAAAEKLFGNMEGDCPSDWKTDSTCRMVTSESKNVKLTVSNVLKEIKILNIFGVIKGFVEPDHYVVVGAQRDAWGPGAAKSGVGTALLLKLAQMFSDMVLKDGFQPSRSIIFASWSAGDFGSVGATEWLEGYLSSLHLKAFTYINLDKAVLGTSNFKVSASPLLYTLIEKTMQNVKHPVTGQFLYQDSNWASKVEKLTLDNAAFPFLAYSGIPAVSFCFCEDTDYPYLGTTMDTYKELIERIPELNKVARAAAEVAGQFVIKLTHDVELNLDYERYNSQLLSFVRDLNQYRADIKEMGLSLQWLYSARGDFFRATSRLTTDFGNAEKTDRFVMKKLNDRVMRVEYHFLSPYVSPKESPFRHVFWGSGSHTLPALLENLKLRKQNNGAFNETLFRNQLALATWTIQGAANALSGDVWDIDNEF

B1: 69263 Fab (Fab, V domains shown)
VH: EVQLVESGGGLVQPGRSLRLSCAVSGFTFDDYAMHWVRQAPGKGLEWVSGISWNSGTRGYADSVKGRFTISRDNAKNSLYLQMNSLRGEDTALYYCVKDITISPNYYGMDVWGQGTTVTVSS
VL: DIQMTQSPSSLSASVGDRVTITCRASQDISHYSAWYQQKPGKLPNLLIYAASTLQSGVPSRFSGSGSGTDFSLTTSSLQPEDVATYYCQKYNSVPLTFGGGTKVEIKR
notes: CHO supernatant
% Blocking: 14%

B2: 69261 Fab (Fab, V domains shown)
VH: QVQLVESGGGLVKPGGSLRLSCAASGFTFSVYYMNWIRQAPGKGLEWVSYISSSGSTIYYADSVKGRFTISRDNAKNSLYLQMNSLRAEDTAVYYCGREGYSGTYSYYGMDVWGQGTTVTVSS
VL: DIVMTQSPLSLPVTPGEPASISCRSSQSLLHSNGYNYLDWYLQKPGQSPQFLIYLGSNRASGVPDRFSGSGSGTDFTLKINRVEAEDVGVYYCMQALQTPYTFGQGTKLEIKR
notes: CHO supernatant
% Blocking: 11%

B3: 69307 Fab (Fab, V domains shown)
VH: EVQLVESGGGLVQPGGSLRLSCTASGFTFSNYWMTWVRQAPGKGLEWVANIKEDGSEKEYVDSVKGRFTISRDNAKNSLYLQMNSLRGEDTAVYYCARDGEQLVDYYYYYVMDVWGQGTTVTVSS
VL: DIQMTQSPSSVSASVGDRVTITCRASQGISSWLAWYQQKPGKAPKLLIYAASSLQSGVPSRFSGSGSGTDFTLTISSLQPEDFATYYCQKADSLPYAFGQGTKLEIKR
notes: CHO supernatant
% Blocking: 12%

B5: 69263 scFv (VH-VK) (scFv)
chain: EVQLVESGGGLVQPGRSLRLSCAVSGFTFDDYAMHWVRQAPGKGLEWVSGISWNSGTRGYADSVKGRFTISRDNAKNSLYLQMNSLRGEDTALYYCVKDITISPNYYGMDVWGQGTTVTVSSDIQMTQSPSSLSASVGDRVTITCRASQDISHYSAWYQQKPGKLPNLLIYAASTLQSGVPSRFSGSGSGTDFSLTTSSLQPEDVATYYCQKYNSVPLTFGGGTKVEIK
% Blocking: 14%

B7: 69263 scFv (VK-VH) (scFv)
scFv: DIQMTQSPSSLSASVGDRVTITCRASQDISHYSAWYQQKPGKLPNLLIYAASTLQSGVPSRFSGSGSGTDFSLTTSSLQPEDVATYYCQKYNSVPLTFGGGTKVEIKGGGGSGGGGSGGGGSEVQLVESGGGLVQPGRSLRLSCAVSGFTFDDYAMHWVRQAPGKGLEWVSGISWNSGTRGYADSVKGRFTISRDNAKNSLYLQMNSLRGEDTALYYCVKDITISPNYYGMDVWGQGTTVTVSS
notes: CHO supernatant; Vk-3xG4S-Vh
% Blocking: 4%

Continued, values first:

% Blocking: 8%
B4: 69329 Fab (Fab, V domains shown)
VH: B3 VH with T23A, E59D
VL: B3 VL with D92N, L94F, A97T
notes: CHO supernatant

% Blocking: 3%
B6: 69305 Fab (Fab, V domains shown)
VH: QVQLVESGGGVVQPGRSLRLSCAASGFTFSSYGMHWVRQAPGKGLEWVAVIWYDGSNKYYADSVKGRFTISRDISKNTLYLQMNSLRAEDTAVYYCAGQLDLFFDYWGQGTLVTVSS
VL: DIQMTQSPSSLSASVGDRVTITCRASQSIDRYLNWYRQKPGKAPKLLIYTTSSLQSGVPSRFSGSGSGTDFTLTLSSLQPEDFATYYCQQSYSPPLTFGGGTKVEIKR
notes: CHO supernatant

% Blocking: 3%
B8: 69305 scFv (VH-VK) (scFv)
chain: QVQLVESGGGVVQPGRSLRLSCAASGFTFSSYGMHWVRQAPGKGLEWVAVIWYDGSNKYYADSVKGRFTISRDISKNTLYLQMNSLRAEDTAVYYCAGQLDLFFDYWGQGTLVTVSSDIQMTQSPSSLSASVGDRVTITCRASQSIDRYLNWYRQKPGKAPKLLIYTTSSLQSGVPSRFSGSGSGTDFTLTLSSLQPEDFATYYCQQSYSPPLTFGGGTKVEIK

% Blocking: 5%
B9: 69305 scFv (VK-VH) (scFv)
scFv: DIQMTQSPSSLSASVGDRVTITCRASQSIDRYLNWYRQKPGKAPKLLIYTTSSLQSGVPSRFSGSGSGTDFTLTLSSLQPEDFATYYCQQSYSPPLTFGGGTKVEIKGGGGSGGGGSGGGGSQVQLVESGGGVVQPGRSLRLSCAASGFTFSSYGMHWVRQAPGKGLEWVAVIWYDGSNKYYADSVKGRFTISRDISKNTLYLQMNSLRAEDTAVYYCAGQLDLFFDYWGQGTLVTVSS
notes: CHO supernatant; Vk-3xG4S-Vh

From patent US20250049896A1 (Regeneron, published 2025)
